Experimental data: patent US8053627B2, “Methods for treating demyelination disorders” (University of Chicago, priority 2005, dated 2011)

B1: SOCS1: suppressor of cytokine signaling 1, Flag-tagged, expressed in oligodendrocytes from the PLP/SOCS1 transgene (protein, UniProt O35716 1-212, looked up)
Suppressor of cytokine …: MVARNQVAADNAISPAAEPRRRSEPSSSSSSSSPAAPVRPRPCPAVPAPAPGDTHFRTFRSHSDYRRITRTSALLDACGFYWGPLSVHGAHERLRAEPVGTFLVRDSRQRNCFFALSVKMASGPTSIRVHFQAGRFHLDGSRETFDCLFELLEHYVAAPRRMLGAPLRQRRVRPLQELCRQRIVAAVGRENLARIPLNPVLRDYLSSFPFQI
modifications: FLAG tag
notes: suppressor of cytokine signaling 1, Flag-tagged, expressed in oligodendrocytes from the PLP/SOCS1 transgene

Assays:
[1] = test system: Hippocampal organotypic cultures; test: Hippocampal organotypic cultures (HOC), in vitro model of myelination, MBP Western blot; type: cell-based; conditions: 7 days; for reduction of MBP expression elicited by IFN-γ exposure: SAL at various concentrations combined with 100 U/ml IFN-γ
Description: HOCs, were prepared and maintained as described previously (Kunkler and Kraig (1997) J Cereb Blood Flow Metab. 17:2643), and were maintained in vitro for 7 days before use. SAL at various concentrations was combined with 100 U/ml IFN-γ and added to the HOC cultures for 7 days. […] After 7 days of 100 U/ml IFN-γ exposure, the levels of MBP decreased approximately 80% in the HOCs (FIG. 29).

PP1-GADD34 phosphatase = PP1-GADD34 phosphatase (Homo sapiens, UniProt O75807); conditions: Boyce, et al. (2005); cited from earlier work
Chain of PP1-GADD34 phosphatase (O75807 whole entry): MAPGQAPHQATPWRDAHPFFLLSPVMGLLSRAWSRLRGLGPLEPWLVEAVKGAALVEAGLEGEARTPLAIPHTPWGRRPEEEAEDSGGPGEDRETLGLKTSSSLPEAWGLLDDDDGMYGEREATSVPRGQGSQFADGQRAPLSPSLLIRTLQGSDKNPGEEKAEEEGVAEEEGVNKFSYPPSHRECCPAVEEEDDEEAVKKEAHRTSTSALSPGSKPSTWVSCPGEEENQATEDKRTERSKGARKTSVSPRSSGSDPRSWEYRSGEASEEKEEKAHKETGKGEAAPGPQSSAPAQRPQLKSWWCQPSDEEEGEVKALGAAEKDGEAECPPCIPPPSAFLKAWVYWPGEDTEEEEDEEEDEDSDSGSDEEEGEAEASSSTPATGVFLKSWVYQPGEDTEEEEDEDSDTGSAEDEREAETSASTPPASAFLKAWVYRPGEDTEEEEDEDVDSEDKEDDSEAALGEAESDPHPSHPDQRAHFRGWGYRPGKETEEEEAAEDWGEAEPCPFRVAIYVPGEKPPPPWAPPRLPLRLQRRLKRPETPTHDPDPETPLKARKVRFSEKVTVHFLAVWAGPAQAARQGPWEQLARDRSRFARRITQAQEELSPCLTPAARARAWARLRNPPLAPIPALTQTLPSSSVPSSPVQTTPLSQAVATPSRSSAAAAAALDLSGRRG

cells = conditions: Boyce, et al. (2005); cited from earlier work
[2] = test system: oligodendrocytes and myelin; test: IFN-γ-overexpressing mice crossed to PLP/SOCS1 mice, clinical and histological evaluation at postnatal day 21; type: in vivo; conditions: for Incidence of tremor: ten mice per group; for oligodendrocyte density: corpus callosum, postnatal day 21
Description: IFN-γ-overexpressing mice were crossed to the PLP/SOCS1 mice in double-transgenic, (MBP/IFN-γ×PLP/SOCS1) and triple-transgenic (GFAP/tTA×TRE/IFN-γ×PLP/SOCS1) mating systems. MBP/IFN-γ×PLP/SOCS1 (172×PLP/SOCS1) mating was performed according to a standard mating protocol. The GFAP/tTA×TRE/IFN-γ×PLP/SOCS1 matings were performed in a 2-step mating process: GFAP/tTA mice were initially crossed to PLP/SOCS1 mice, and double-positive (184×PLP/SOCS1) offspring were then crossed to the TRE/IFN-γ lines 110 and 67, separately. This second mating step was performed according to the previously described “tet-off” protocol. Doxycycline 0.05 mg/ml (Sigma-Aldich) was added to the water of impregnated female mice until embryonic day 14, after which the animals were switched back to normal water, thereby allowing initiation of IFN-γ transcription, which peaks during the postnatal period (Lin et al., 2005).
The litters of the mating systems (F1 generation) were examined daily and sacrificed at postnatal day 21. Clinical evaluation included behavioral observation and challenged ladder walking to elicit tremor. Histological examination included quantitation of the number and density of oligodendrocytes and examination of the myelination patterns. Brain tissue was simultaneously obtained from each animal at the time of sacrifice to verify and measure the expression of IFN-γ and Flag-SOCS1 (see below). The clinical and histological findings were subsequently stratified according to genotype. All animal procedures were conducted in compliance with the National Institutes of Health Guide for Care and Use of Laboratory Animals and were approved by the Institutional Animal Care and Use Committee at The University of Chicago.
Oligodendrocyte cell density was assessed digitally using Axiovision software, at postnatal day 21, as previously described (Lin et al., 2005). The brains were sectioned sagittally through the corpus callosum dividing the brain in two symmetrical halves. Ten frozen sections from each half were prepared at 7 μm thickness, and numbered in the sequence of their preparation. The brains of three animals per study group were prepared in this fashion. Following the CC1 immunostaining the corresponding area of corpus callosum of each section was digitally selected and the corresponding total area obtained. CC1 cell counting was performed manually within the selected areas of each section, and the number of CC1 positive cells per square area (mm^2) calculated. The results were presented as mean±SD of CC1 (+) cells/mm^2 with n=3 animals per study group.
Myelination patterns of the examined animals were assessed at postnatal day 21 by calculating the percent unmyelinated axons and ratio of the axon/fiber diameters (G ratio) with Image J software (National Institutes of Health, Bethesda, Md.) as previously described (Lin at al., 2005). The brains were sectioned sagittally through the corpus callosum dividing the brain in two symmetrical halves. Approximately 2 mm^3 samples from the genu and the splenum of both halves of corpus callosum were obtained using a Wild M3C stereotype microscope. The orientation of the specimen in the resin blocks yielding axonal cross-sections (well seen myelin rings) was chosen, and established by toluedine blue staining of a few sample sections. The resin blocks with the chosen orientation were processed for electron microscope examination. Randomly selected areas were examined and ten representative pictures from both genu and splenum corpus callosum were obtained at 12000× magnification. The number of unmyelinated axons was assessed by manual counting of axons that lacked myelin and were encircled solely by their own plasma membrane. All unmyelinated axons present in the representative images were counted, and their percentage calculated by examining a total of five hundred axons per tissue sample. […]

Molecule | reduction of MBP expression elicited by IFN-γ exposure [1] | reduction of MBP expression elicited by IFN-γ exposure ([1]; listed as Sal) | MBP expression ([1]; SAL treatment alone) | PP1-GADD34 phosphatase activity (PP1-GADD34 phosphatase) | protection of cells from ER stress and viral infection (cells) | Incidence of tremor ([2]; 172 × PLP/SOCS1 littermates) [%] | oligodendrocyte density ([2]; 184/67 system) | Incidence of tremor ([2]; 184/67 × PLP/SOCS1 littermates) [%] | oligodendrocyte density ([2]; 184/110 system) | Incidence of tremor ([2]; 184/110 × PLP/SOCS1 littermates) [%] | MHC class I molecule expression (immunostaining) ([2]; MBP/IFN-γ and MBP/IFN-γ×PLP/SOCS1 brains)
O=C(/C=C/c1ccccc1)NC(NC(=S)Nc1cccc2cccnc12)C(Cl)(Cl)Cl (centres unmarked) [SAL, salubrinal] | markedly attenuated | attenuating effect | did not affect | specifically inhibits | protects cells from ER stress and viral infection |  |  |  |  |  | 
B1 |  |  |  |  |  | 0 | 142±5 CC1 (+) cells/mm^2 | 0 | 141±6 CC1 (+) cells/mm^2 | 0 | did not express detectable levels
